Tested on: calmodulin (3′,5′-cyclic nucleotide phosphodiesterase activator, Sigma)

Substance: 3′,5′-cyclic nucleotide phosphodiesterase (activator deficient from bovine brain, Sigma)
- hydrolysis of 3′,5′-cyclic AMP to 5′-AMP during a 40 min preincubation (enzyme activity): more than 90% is destroyed in a similar reaction containing calmodulin

Source: patent US20060121510
